Data on six molecules can be found in PMC10937111, “Structural basis for intra- and intermolecular interactions on RAD9 subunit of 9-1-1 checkpoint clamp implies functional 9-1-1 regulation by RHINO” (The Journal of Biological Chemistry, 2024).

Numbering of substitutions follows the chain as printed. Names may count otherwise.

Test [1] deals with T1, recombinant human 9-1-1 ring for crystallization (RAD9 residues 1-270, His-HUS1, RAD1 F64A/M256A/F266A) (human, UniProt Q99638 1-270; O60671 1-282; O60921 2-280, F64A | M256A | F266A).
T1 construct: C-terminal truncated RAD9, human, residues 1-270; RAD1, human, with the triple substitutions F64A/M256A/F266A; HUS1, human; source: E. coli BL21(DE3), co-expressed, purified (HiTrap Heparin, HiTrap Q, HiLoad Superdex200); copies: + +
T1 sequence 1: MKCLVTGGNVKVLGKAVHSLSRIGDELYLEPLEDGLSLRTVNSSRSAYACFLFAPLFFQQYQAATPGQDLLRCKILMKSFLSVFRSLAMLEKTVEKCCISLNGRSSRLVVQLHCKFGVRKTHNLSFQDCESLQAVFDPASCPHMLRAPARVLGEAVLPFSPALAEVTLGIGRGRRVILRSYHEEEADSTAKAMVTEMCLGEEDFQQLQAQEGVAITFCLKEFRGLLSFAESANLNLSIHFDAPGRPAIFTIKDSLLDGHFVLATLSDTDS
T1 sequence 2: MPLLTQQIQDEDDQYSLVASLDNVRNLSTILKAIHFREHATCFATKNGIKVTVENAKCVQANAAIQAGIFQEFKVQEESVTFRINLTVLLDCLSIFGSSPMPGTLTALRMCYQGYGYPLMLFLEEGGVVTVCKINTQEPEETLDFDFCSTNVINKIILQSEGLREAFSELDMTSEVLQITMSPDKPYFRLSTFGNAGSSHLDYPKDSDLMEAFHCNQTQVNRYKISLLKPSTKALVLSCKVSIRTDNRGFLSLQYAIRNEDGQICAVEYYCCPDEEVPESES
T1 sequence 3: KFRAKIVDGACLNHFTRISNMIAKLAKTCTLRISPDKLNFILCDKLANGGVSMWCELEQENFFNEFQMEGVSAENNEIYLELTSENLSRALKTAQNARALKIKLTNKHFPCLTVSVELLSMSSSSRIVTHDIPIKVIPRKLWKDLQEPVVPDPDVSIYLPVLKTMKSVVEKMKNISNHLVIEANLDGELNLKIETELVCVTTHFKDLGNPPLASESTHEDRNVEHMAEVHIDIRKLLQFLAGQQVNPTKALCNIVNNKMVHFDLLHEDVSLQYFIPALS
In words: crystal structure; 0.13 mM 9-1-1 ring incubated with about 10-fold molar excess of the RHINO peptide at 277 K overnight; vapor diffusion, 0.2 M potassium iodine, 14% PEG 3350, 293 K; 2.81 Å. Conditions: both partners purified.

Test [2] addresses T2, FLAG-tagged 9^ΔC-1-1 (9-1-1 ring), wild type (human, UniProt Q99638 1-272; O60671 1-282; O60921 1-280).
T2 construct: RAD9 with the C-tail truncated (RAD9^ΔC), human, residues 1-272, from pFastBac1-FLAG-RAD9^ΔC; RAD1 subunit of 9-1-1; HUS1 subunit of 9-1-1; also called 9^ΔC-1-1 (W); purified 9^ΔC-1-1; copies: + +
T2 sequence (looked up) 1: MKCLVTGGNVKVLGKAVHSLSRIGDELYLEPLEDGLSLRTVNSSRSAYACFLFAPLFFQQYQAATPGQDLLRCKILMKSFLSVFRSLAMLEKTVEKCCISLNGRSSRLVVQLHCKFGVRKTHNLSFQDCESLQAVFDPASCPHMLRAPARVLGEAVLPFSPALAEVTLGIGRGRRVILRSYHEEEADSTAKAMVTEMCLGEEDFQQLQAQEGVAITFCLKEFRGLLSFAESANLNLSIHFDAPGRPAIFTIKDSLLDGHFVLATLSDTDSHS
T2 sequence (looked up) 2: T1 sequence 2 with A64F, A256M, A266F
T2 sequence (looked up) 3: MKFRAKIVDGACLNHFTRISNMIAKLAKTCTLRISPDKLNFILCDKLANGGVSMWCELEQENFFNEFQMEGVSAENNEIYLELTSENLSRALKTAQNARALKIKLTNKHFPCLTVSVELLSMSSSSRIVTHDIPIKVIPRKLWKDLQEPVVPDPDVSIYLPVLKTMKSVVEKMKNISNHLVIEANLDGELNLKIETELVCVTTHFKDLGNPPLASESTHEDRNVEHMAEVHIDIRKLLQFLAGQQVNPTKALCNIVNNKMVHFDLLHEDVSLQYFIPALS
Kind of test: pull-down; GST or GST-fusion proteins from E. coli lysate immobilised on Glutathione-Sepharose 4B beads and washed four times; incubated with purified PCNA, FLAG-tagged 9^ΔC-1-1 (W) or its LVF mutant for 2 h at 4 °C in 25 μl of buffer H (25 mM HEPES-NaOH pH 7.8, 150 mM NaCl, 1 mM EDTA, 10% glycerol, 0.01% NP-40); immunoblotting with anti-RAD1 or anti-PCNA antibody. Conditions: both partners purified.

B1: human RHINO peptide (88-TSKFPHLTFESP-99) (peptide)
peptide: TSKFPHLTFESP
notes: also called RHINO (residues 88-99); source: synthetic peptide (TORAY Research Center, Inc)
For B1, the binding result in test [1] was “binds”.

B2: GST-RAD9C15 F361A (peptide, UniProt Q99638 356-370, looked up)
chain: PPPKKARSLFFGSIL
notes: RAD9, human, residues 356-370 of the C-tail, F361A; source: E. coli Rosetta 2(DE3)pLysS, from cell lysate immobilised on Glutathione-Sepharose 4B beads and washed
Consider B2, for which the binding result in test [2] is given as “binds”.

B3: GST-RAD9C15 F365A (peptide, UniProt Q99638 356-370, looked up)
chain: PPPKKFRSLAFGSIL
notes: RAD9, human, residues 356-370 of the C-tail, F365A; source: E. coli Rosetta 2(DE3)pLysS, from cell lysate immobilised on Glutathione-Sepharose 4B beads and washed
On to B3, for which, in test [2], the binding result is “binds”.

B4: GST-p21CT FY (F150A/Y151A) (domain or fragment, human, UniProt P38936 87-164, looked up)
chain: DELGGGRRPGTSPALLQGTAEEDHVDLSLSCTLVPRSGEQAEGSPGGPGDSQGRKRRQTSMTDAAHSKRRLIFSKRKP
notes: p21, C-terminal region, residues 87-164, F150A/Y151A in the PIP-box; also called p21CT variant with the F150A/Y151A double substitution in the PIP-box; source: E. coli Rosetta 2(DE3)pLysS, from cell lysate immobilised on Glutathione-Sepharose 4B beads and washed
Take B4: the binding result in test [2] is “binds”.

B5: GST-tagged RAD9 (residues 356-370) (GST-RAD9C15), wild type (peptide, UniProt Q99638 356-370, looked up)
chain: PPPKKFRSLFFGSIL
notes: RAD9, human, residues 356-370 of the C-tail; source: E. coli Rosetta 2(DE3)pLysS, from cell lysate immobilised on Glutathione-Sepharose 4B beads and washed
As for B5, the binding result in test [2] is “binds”.

B6: GST-tagged p21 C-terminal region (residues 87-164) (GST-p21CT), wild type (domain or fragment, human, UniProt P38936 87-164, looked up)
chain: B4 chain with A64F, A65Y
notes: p21, C-terminal region carrying the PIP-box, residues 87-164; also called p21 (W); source: E. coli Rosetta 2(DE3)pLysS, from cell lysate immobilised on Glutathione-Sepharose 4B beads and washed
On to B6, for which the binding result in test [2] is recorded as “binds”.
